Assay results published in patent US20200291118A1 (HANX BIOPHARMACEUTICS, published 2020).

What was measured:
hPD-1-his antigen [1] = molecular target: T1, hPD-1-his antigen (human, UniProt Q15116 25-167, limits assumed); test: ELISA on coated hPD-1-his
T1 construct: Coating antigen; not shown: his tag
Procedure: (§1) An ELISA plate was coated with hPD-1-his antigen at a concentration of 0.25 μg/ml (100 μl per well) by incubation at 4° C. overnight.
(§2) The ELISA plate coated with the hPD-1-his antigen was blocked with 1% BSA (diluted in the PBS buffer) at 37° C. for 2 hours, and then washed with 1×PBST buffer containing 1% Tween-20 for three times, with gently patting to dryness.
(§3) The absorbance of solution in each well was measured on a microplate reader under a wavelength of 450 nm.

hPD-1-his antigen [2] = molecular target: T1, hPD-1-his antigen; test: ELISA on coated hPD-1-his; antibody 1:5 of 2 µg/ml
Procedure: as §1, §2, §3

hPD-1-hIgGFc antigen [3] = molecular target: T2, hPD-1-hIgGFc antigen (human, UniProt Q15116 25-167, limits assumed); test: competition ELISA on coated hPD-1-hIgGFc; competitor PD-L2-his tag
T2 construct: not shown: human IgG Fc
T2 sequence (Q15116 25-167 limits assumed): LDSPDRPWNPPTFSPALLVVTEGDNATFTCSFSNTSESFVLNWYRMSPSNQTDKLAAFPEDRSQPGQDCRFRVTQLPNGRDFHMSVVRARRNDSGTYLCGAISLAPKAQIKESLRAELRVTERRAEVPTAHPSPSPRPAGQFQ
Procedure: A 96-well ELISA plate was coated with hPD-1-hIgGFc antigen at a concentration of 1.0 μg/ml (100 μl per well) by incubation at 4° C. overnight.
After the 96-well ELISA plate was washed with the PBST buffer for five times and gently patted to dryness, HRP conjugated anti-his tag mouse monoclonal antibody as a secondary antibody in 1:750 dilution (50 μl per well) was added for incubation at 37° C. for 1 hour.

hPD-1-hIgGFc antigen [4] = molecular target: T2, hPD-1-hIgGFc antigen; test: competition ELISA on coated hPD-1-hIgGFc; competitor PD-L1-mIgG2aFc
Procedure: A 96-well ELISA plate was coated with hPD-1-hIgGFc antigen at a concentration of 0.5 μg/ml (50 μl per well) by incubation at 4° C. overnight.

T1 sequence (Q15116 25-167 limits assumed): as above

EC50 (hPD-1-his antigen [1]): 0.05 nM
absorbance at 450 nm (hPD-1-his antigen [2]): 1.76
IC50 (hPD-1-hIgGFc antigen [3]): 2.7 nM
IC50 (hPD-1-hIgGFc antigen [4]): 1 nM
B1: humanized antibody H8 (anti-PD-1 IgG antibody) (antibody, V domains shown)
VH: EVQLVQSGGGLVQPGGSLKLSCAASGFTFSSYGMSWVRQAPGKGLDWVATISGGGRDTYYPDSVKGRFTISRDNSKNNLYLQMNSLRAEDTALYYCARQKGEAWFAYWGQGTLVTVSA
VL: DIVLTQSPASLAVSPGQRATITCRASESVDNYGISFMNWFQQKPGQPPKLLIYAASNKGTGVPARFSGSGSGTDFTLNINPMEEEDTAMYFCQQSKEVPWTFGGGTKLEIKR
notes: also called HX008; HX008 18A10 antibody
